Measured values as given in patent publication US20240199757A1.

T1: human NT5E expressed on MDA-MB-231 cells (human) (UniProt P21589)
T1 sequence (looked up): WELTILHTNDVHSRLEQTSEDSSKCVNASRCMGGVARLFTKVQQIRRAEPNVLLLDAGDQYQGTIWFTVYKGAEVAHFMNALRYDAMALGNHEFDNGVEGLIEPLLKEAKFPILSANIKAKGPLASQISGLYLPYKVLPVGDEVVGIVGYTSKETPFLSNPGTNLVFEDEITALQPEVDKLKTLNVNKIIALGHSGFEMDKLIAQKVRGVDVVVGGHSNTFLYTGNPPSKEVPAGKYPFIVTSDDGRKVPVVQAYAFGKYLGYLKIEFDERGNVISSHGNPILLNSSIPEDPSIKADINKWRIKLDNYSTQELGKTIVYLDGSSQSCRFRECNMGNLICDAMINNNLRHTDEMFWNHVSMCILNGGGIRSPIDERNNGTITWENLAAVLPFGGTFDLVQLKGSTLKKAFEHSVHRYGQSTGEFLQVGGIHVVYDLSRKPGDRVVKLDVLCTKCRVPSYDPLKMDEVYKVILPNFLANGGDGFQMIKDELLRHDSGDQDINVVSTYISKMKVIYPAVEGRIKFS

T2: murine NT5E expressed on 4T1 cells (murine) (UniProt Q61503)
T2 sequence (looked up): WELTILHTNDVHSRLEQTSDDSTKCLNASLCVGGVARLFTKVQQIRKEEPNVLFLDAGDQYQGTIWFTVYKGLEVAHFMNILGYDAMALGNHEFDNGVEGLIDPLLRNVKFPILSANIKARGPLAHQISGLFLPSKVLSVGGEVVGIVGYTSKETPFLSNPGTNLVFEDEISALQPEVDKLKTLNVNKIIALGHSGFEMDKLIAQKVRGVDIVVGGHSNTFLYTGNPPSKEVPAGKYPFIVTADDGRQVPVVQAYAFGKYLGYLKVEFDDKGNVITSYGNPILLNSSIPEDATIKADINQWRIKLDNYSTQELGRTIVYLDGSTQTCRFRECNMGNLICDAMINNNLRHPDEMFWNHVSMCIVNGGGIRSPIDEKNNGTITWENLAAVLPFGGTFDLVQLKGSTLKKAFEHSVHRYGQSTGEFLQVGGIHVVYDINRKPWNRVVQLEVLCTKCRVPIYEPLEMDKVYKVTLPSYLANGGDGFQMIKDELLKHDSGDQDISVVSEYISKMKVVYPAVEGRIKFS


Key:
[1] = molecular target: T1, human NT5E expressed on MDA-MB-231 cells (human); test: cell-based or functional assay
[2] = molecular target: T2, murine NT5E expressed on 4T1 cells (murine); test: cell-based or functional assay
[3] = molecular target: hNT5EFF (F417A/F500A mutant of hNT5E) (human); test: DSF thermal shift, 1.5-fold molar excess of Fab, no ATP (hNT5EFF alone 47° C.)
[4] = molecular target: hNT5EFF (F417A/F500A mutant of hNT5E) (human); test: DSF thermal shift, 1.5-fold molar excess of Fab, 1 mM ATP (hNT5EFF alone 47° C.)

| IC50 of NT5E activity on MDA-MB-231 cells, no ATP [1] | IC50 of NT5E activity on MDA-MB-231 cells, with ATP [1] | IC50 of NT5E activity on 4T1 cells, with ATP [2] | TM of NT5E in the presence of the Fab [3] | TM of NT5E in the presence of the Fab [4] | Binder |
| --- | --- | --- | --- | --- | --- |
| 6.9 nM | 2.5 nM | 12.7 nM |  |  | 1789 AM39 IgG (antibody, V domains shown) VH: EVQLVESGGGLVQPGGSLRLSCAASGFNVSYSSIHWVRQAPGKGLEWVASIRGAGSDTRYADSVKGRFTISADTSKNTAYLQMNSLRAEDTAVYYCARNYWGWYPFYYFAFDYWGQGTLVTVSS VL: DIQMTQSPSSLSASVGDRVTITCRASQSVSSAVAWYQQKPGKAPKLLIYSASSLYSGVPSRFSGSRSGTDFTLTISSLQPEDFATYYCQQGWDYPITFGQGTKVEIKR |
|  |  |  | 47 ° C. | 46 ° C. | 1789 Fab (Fab, V domains shown) VH: EVQLVESGGGLVQPGGSLRLSCAASGFNVSYSSIHWVRQAPGKGLEWVASISSSSGYTYYADSVKGRFTISADTSKNTAYLQMNSLRAEDTAVYYCARNYWGWYPFYYFAFDYWGQGTLVTV VL: DIQMTQSPSSLSASVGDRVTITCRASQSVSSAVAWYQQKPGKAPKLLIYSASSLYSGVPSRFSGSRSGTDFTLTISSLQPEDFATYYCQQGWDYPITFGQGTKVEIKR |
| 5.6 nM | 2.3 nM | 9.1 nM |  |  | 1789 AM32 IgG (antibody, V domains shown) VH: EVQLVESGGGLVQPGGSLRLSCAASGFNVSYSSIHWVRQAPGKGLEWVARIRGNEGDTYYADSVKGRFTISADTSKNTAYLQMNSLRAEDTAVYYCARNYWGWYPFYYFAFDYWGQGTLVTVSS VL: DIQMTQSPSSLSASVGDRVTITCRASQSVSSAVAWYQQKPGKAPKLLIYSASSLYSGVPSRFSGSRSGTDFTLTISSLQPEDFATYYCQQGWDYPITFGQGTKVEIKR |
| 5.4 nM | 1.9 nM | 8.8 nM |  |  | 1789 AM42 IgG (antibody, V domains shown) VH: EVQLVESGGGLVQPGGSLRLSCAASGFNVSYSSIHWVRQAPGKGLEWVAKIRGGHQDTHYADSVKGRFTISADTSKNTAYLQMNSLRAEDTAVYYCARNYWGWYPFYYFAFDYWGQGTLVTVSS VL: DIQMTQSPSSLSASVGDRVTITCRASQSVSSAVAWYQQKPGKAPKLLIYSASSLYSGVPSRFSGSRSGTDFTLTISSLQPEDFATYYCQQGWDYPITFGQGTKVEIKR |
